In the supplement of paper PMC9112550, “Optimization of the antimicrobial peptide Bac7 by deep mutational scanning” (BMC Biology, 2022):

system: Escherichia coli TOP10; experiment: shrunken log2 fold change of peptide-encoding DNA abundance (4.5 h post-induction vs induction); higher = less antimicrobial activity (less host growth inhibition); conditions: time post-induction: 4.5 h; library: site-saturation at positions 5, 18, 19, 20
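Note: peptides expressed intracellularly from a pBAD plasmid library in pooled LB shake-flask culture, induced with 0.3% L-arabinose, DNA abundance read by NGS, three biological replicates, DESeq2 with apeglm shrinkage.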

Going from RRIRKRPPRLPRPRPRPMVTPRP to RRIRYRPPRLPRPRPRPWIIPRP, the “shrunken log2 fold change” value falls from 0.231 to -0.384.

Compared with RRIRKRPPRLPRPRPRPTTWPRP, RRIRQRPPRLPRPRPRPLPAPRP is lower in “shrunken log2 fold change” value: 0.414 for the first, 0.214 for the second.

Compared with RRIRDRPPRLPRPRPRPECNPRP, RRIRERPPRLPRPRPRPYQLPRP is lower in “shrunken log2 fold change” value: 0.741 for the first, -0.0108 for the second.

Going from RRIRRRPPRLPRPRPRPYWLPRP to RRIRQRPPRLPRPRPRPFKCPRP, the “shrunken log2 fold change” value rises from -0.578 to 0.00905.

RRIRSRPPRLPRPRPRPLEHPRP and RRIRNRPPRLPRPRPRPKTVPRP are within 0.2 log units of each other in “shrunken log2 fold change” value: 0.0173 for the first, 0.0807 for the second.

Going from RRIRSRPPRLPRPRPRPRYDPRP to RRIRHRPPRLPRPRPRPVHWPRP, the “shrunken log2 fold change” value rises from -0.444 to 0.0039.

Compared with RRIRGRPPRLPRPRPRPMPCPRP, RRIRMRPPRLPRPRPRPMNNPRP is lower in “shrunken log2 fold change” value: 0.104 for the first, -0.411 for the second.

Going from RRIRLRPPRLPRPRPRPCPWPRP to RRIRPRPPRLPRPRPRPNTNPRP, the “shrunken log2 fold change” value falls from -0.129 to -0.329.

RRIRQRPPRLPRPRPRPRFFPRP and RRIRNRPPRLPRPRPRPKTPPRP are within 0.2 log units of each other in “shrunken log2 fold change” value: 0.0926 for the first, 0.228 for the second.

Compared with RRIRHRPPRLPRPRPRPHYAPRP, RRIRDRPPRLPRPRPRPHPMPRP is higher in “shrunken log2 fold change” value: -0.992 for the first, 0.0468 for the second.

Going from RRIRGRPPRLPRPRPRPGYMPRP to RRIRDRPPRLPRPRPRPTPSPRP, the “shrunken log2 fold change” value rises from -0.0736 to 0.368.

Compared with RRIRNRPPRLPRPRPRPAQLPRP, RRIRPRPPRLPRPRPRPGAWPRP is higher in “shrunken log2 fold change” value: -0.207 for the first, 0.132 for the second.

RRIRHRPPRLPRPRPRPVQFPRP and RRIRMRPPRLPRPRPRPVIFPRP are within 0.2 log units of each other in “shrunken log2 fold change” value: -0.335 for the first, -0.237 for the second.

Compared with RRIRVRPPRLPRPRPRPKLAPRP, RRIRARPPRLPRPRPRPIPGPRP is lower in “shrunken log2 fold change” value: 0.274 for the first, 0.0653 for the second.

RRIRCRPPRLPRPRPRPCWEPRP and RRIRDRPPRLPRPRPRPKTTPRP are within 0.2 log units of each other in “shrunken log2 fold change” value: -0.0142 for the first, 0.0604 for the second.

Going from RRIRDRPPRLPRPRPRPEKNPRP to RRIRDRPPRLPRPRPRPDRKPRP, the “shrunken log2 fold change” value falls from 0.489 to -0.055.

First: RRIRPRPPRLPRPRPRPDWLPRP
Second: RRIRHRPPRLPRPRPRPINSPRP
The “shrunken log2 fold change” value of the first is higher: 0.288 for the first, -0.404 for the second.

RRIRQRPPRLPRPRPRPVMNPRP and RRIRHRPPRLPRPRPRPVEQPRP are within 0.2 log units of each other in “shrunken log2 fold change” value: 0.0954 for the first, 0.0184 for the second.

Compared with RRIRGRPPRLPRPRPRPAWMPRP, RRIRHRPPRLPRPRPRPLFVPRP is lower in “shrunken log2 fold change” value: 0.554 for the first, -0.471 for the second.

RRIRKRPPRLPRPRPRPMTSPRP and RRIRGRPPRLPRPRPRPHGEPRP are within 0.2 log units of each other in “shrunken log2 fold change” value: 0.0716 for the first, 0.164 for the second.

Compared with RRIRLRPPRLPRPRPRPHQQPRP, RRIRNRPPRLPRPRPRPNAEPRP is higher in “shrunken log2 fold change” value: 0.0445 for the first, 0.388 for the second.

Compared with RRIRYRPPRLPRPRPRPLSVPRP, RRIRERPPRLPRPRPRPSSSPRP is higher in “shrunken log2 fold change” value: -0.576 for the first, 0.307 for the second.

First: RRIRHRPPRLPRPRPRPPSLPRP
Second: RRIRWRPPRLPRPRPRPFYEPRP
The “shrunken log2 fold change” value of the first is higher: -0.0977 for the first, -0.579 for the second.

First: RRIRVRPPRLPRPRPRPNLTPRP
Second: RRIRLRPPRLPRPRPRPKEYPRP
The “shrunken log2 fold change” value of the first is higher: -0.186 for the first, -0.567 for the second.

Going from RRIRFRPPRLPRPRPRPVKMPRP to RRIRMRPPRLPRPRPRPENQPRP, the “shrunken log2 fold change” value rises from -0.0692 to 1.86.

RRIRIRPPRLPRPRPRPIAQPRP and RRIRNRPPRLPRPRPRPANTPRP are within 0.2 log units of each other in “shrunken log2 fold change” value: -0.373 for the first, -0.242 for the second.

Going from RRIRTRPPRLPRPRPRPGYCPRP to RRIRARPPRLPRPRPRPTVEPRP, the “shrunken log2 fold change” value rises from -0.184 to 1.19.

Compared with RRIRIRPPRLPRPRPRPLNKPRP, RRIRKRPPRLPRPRPRPCVFPRP is higher in “shrunken log2 fold change” value: -0.398 for the first, 0.204 for the second.

Compared with RRIRMRPPRLPRPRPRPKQWPRP, RRIRCRPPRLPRPRPRPNASPRP is lower in “shrunken log2 fold change” value: 0.895 for the first, 0.0178 for the second.

RRIRDRPPRLPRPRPRPPLYPRP and RRIRLRPPRLPRPRPRPSSWPRP are within 0.2 log units of each other in “shrunken log2 fold change” value: 0.0303 for the first, -0.0958 for the second.

RRIRWRPPRLPRPRPRPCMHPRP and RRIRVRPPRLPRPRPRPVEHPRP are within 0.2 log units of each other in “shrunken log2 fold change” value: -0.0533 for the first, 0.00181 for the second.

RRIRMRPPRLPRPRPRPFGEPRP and RRIRCRPPRLPRPRPRPQGVPRP are within 0.2 log units of each other in “shrunken log2 fold change” value: 0.0461 for the first, 0.0642 for the second.

Compared with RRIRNRPPRLPRPRPRPAIKPRP, RRIRNRPPRLPRPRPRPPASPRP is higher in “shrunken log2 fold change” value: -0.383 for the first, 0.486 for the second.

RRIRCRPPRLPRPRPRPEWSPRP and RRIRSRPPRLPRPRPRPDLSPRP are within 0.2 log units of each other in “shrunken log2 fold change” value: 0.144 for the first, 0.101 for the second.

RRIRYRPPRLPRPRPRPASVPRP and RRIRRRPPRLPRPRPRPINIPRP are the same in “shrunken log2 fold change” value: -0.256 for the first, -0.256 for the second.

Going from RRIRVRPPRLPRPRPRPDATPRP to RRIRQRPPRLPRPRPRPLCTPRP, the “shrunken log2 fold change” value falls from 0.299 to -0.543.

RRIRTRPPRLPRPRPRPKRHPRP and RRIRMRPPRLPRPRPRPPTEPRP are within 0.2 log units of each other in “shrunken log2 fold change” value: 0.222 for the first, 0.413 for the second.

First: RRIRLRPPRLPRPRPRPPHQPRP
Second: RRIRSRPPRLPRPRPRPSLTPRP
The “shrunken log2 fold change” value of the first is higher: 0.168 for the first, -0.138 for the second.

Going from RRIRCRPPRLPRPRPRPLLQPRP to RRIRWRPPRLPRPRPRPLSNPRP, the “shrunken log2 fold change” value falls from 0.167 to -0.252.

Compared with RRIRMRPPRLPRPRPRPELVPRP, RRIRCRPPRLPRPRPRPYHAPRP is lower in “shrunken log2 fold change” value: 0.0445 for the first, -0.585 for the second.

Compared with RRIRYRPPRLPRPRPRPLHQPRP, RRIRTRPPRLPRPRPRPHYGPRP is higher in “shrunken log2 fold change” value: -0.608 for the first, -0.0891 for the second.

RRIRGRPPRLPRPRPRPNMIPRP and RRIRLRPPRLPRPRPRPVVEPRP are within 0.2 log units of each other in “shrunken log2 fold change” value: 0.0819 for the first, 0.175 for the second.

First: RRIRYRPPRLPRPRPRPPVYPRP
Second: RRIRGRPPRLPRPRPRPEICPRP
The “shrunken log2 fold change” value of the first is lower: -0.406 for the first, 1.73 for the second.

RRIRSRPPRLPRPRPRPTSKPRP and RRIRVRPPRLPRPRPRPMMTPRP are within 0.2 log units of each other in “shrunken log2 fold change” value: 0.0753 for the first, 0.0496 for the second.

Compared with RRIRARPPRLPRPRPRPPQEPRP, RRIRVRPPRLPRPRPRPQQHPRP is lower in “shrunken log2 fold change” value: 0.854 for the first, -0.0119 for the second.

RRIRMRPPRLPRPRPRPCEPPRP and RRIRRRPPRLPRPRPRPTFKPRP are within 0.2 log units of each other in “shrunken log2 fold change” value: 0.234 for the first, 0.214 for the second.

RRIRLRPPRLPRPRPRPLVKPRP and RRIRVRPPRLPRPRPRPQCIPRP are within 0.2 log units of each other in “shrunken log2 fold change” value: -0.00589 for the first, 0.101 for the second.

Compared with RRIRERPPRLPRPRPRPNDEPRP, RRIRKRPPRLPRPRPRPNMRPRP is higher in “shrunken log2 fold change” value: -0.0119 for the first, 0.334 for the second.

Compared with RRIRSRPPRLPRPRPRPPNPPRP, RRIRARPPRLPRPRPRPWLDPRP is lower in “shrunken log2 fold change” value: 0.273 for the first, 0.0658 for the second.

Compared with RRIRMRPPRLPRPRPRPANNPRP, RRIRYRPPRLPRPRPRPQKHPRP is lower in “shrunken log2 fold change” value: -0.264 for the first, -0.777 for the second.

RRIRQRPPRLPRPRPRPKDKPRP and RRIRMRPPRLPRPRPRPNQCPRP are within 0.2 log units of each other in “shrunken log2 fold change” value: -0.386 for the first, -0.198 for the second.

RRIRIRPPRLPRPRPRPSGRPRP and RRIRERPPRLPRPRPRPLSQPRP are within 0.2 log units of each other in “shrunken log2 fold change” value: -0.427 for the first, -0.406 for the second.

Compared with RRIRKRPPRLPRPRPRPIPAPRP, RRIRPRPPRLPRPRPRPNRWPRP is lower in “shrunken log2 fold change” value: 0.945 for the first, 0.106 for the second.

RRIRPRPPRLPRPRPRPFLEPRP and RRIRYRPPRLPRPRPRPMDHPRP are within 0.2 log units of each other in “shrunken log2 fold change” value: -0.214 for the first, -0.237 for the second.

In the case of RRIRSRPPRLPRPRPRPNTIPRP, the “shrunken log2 fold change” value is reported as -0.511.
